# Like-named read-outs stand apart in the source and are kept apart here.
# B1: M.TneDI: methyltransferase of T. neapolitana encoded by CTN_0340, modifies CGCG sequences; SEQ ID NO: 14 (protein, listed as Thermotoga neapolitana)
# chain: MKRRKSTRTSSFGVKGRESHDSSPFYSRAIYSNFSLPKPSEEDLIENPLPENLLDKVIEGDAREVLKKIPDCSIHLMVTSPPYNVGKEYDEDMTLDEYLEFIEEIMKEVYRVLVWGGRACFNVANLGRKPYIPLHAYLIHLFEKIGFLIRGEIIWDKGEAVSGSSTAWGSWMSPVNPVLRDQHEYIIVMSKGDLKRRKPSDREAKSTITREEFLEFTRSVWKFPPESAKRVGHPAPFPEELPYRCIQLYTFKGDVVLDPFAGVGTTCVAAVKTGRHFVGIEINPEYVKKAEERVKDILSKPTLFEDHC
# B2: R.TneDI: Type II restriction endonuclease of T. neapolitana encoded by CTN_0339, recognizing CGCG; SEQ ID NO: 13 (protein, listed as Thermotoga neapolitana)
# chain: MRKTDPLIDIFKKNKERIDILGKAWDIFYFEGRAPDVGKRRENFIVEMIRKELSHFIKSVNQAPDTERNWDIEITFQDDSTKRYSIKTTEGFSDVKIAWDGFPTKDRILTFNFQADIFYIARNKDKIILCVIDLEKLRDLQREVEKNESKLEEYYSLPSSNTNPRGFGLKSSTVKRLIELSKKEENYLEIDYKPFPVELILKAKEEYFKGWYDLIKELIEKYQQ
# Experiments:
# [1] = crude yeast extract, 37° C., cited from earlier work
# T. maritima = assay: Selective levels of kanamycin in liquid and solid SVO media; type: cell-based, Thermotoga maritima; conditions: liquid SVO
# Experimental: (§1) One ml of overnight culture was mixed with 25 ml of hot SVO containing 0.3% GELRITE and poured to Petri dishes. Small discs of 7 mm in diameter were cut from Whatman qualitative filter paper and were placed on solidified plates. Various amount of kanamycin (50˜250 μg) was added to the paper discs. After 48 h of anaerobic incubation, sensitive strains would display inhibition zones surrounding the discs. To specify the selective levels of the antibiotic in both liquid and solid media, kanamycin ranging from 50 to 300 μg ml^−1 was supplemented, and the proliferation of bacteria was monitored for up to 72 h.
# (§2) We next specified the selective levels of kanamycin in both liquid and solid media. […] However, spontaneous mutations sometimes caused the cultures to become resistant to the antibiotic, and a complete inhibition over a period of 72 h was only possible when the input amount was increased to 150 μg ml^−1. Similar phenomena were also noticed with T. sp. RQ7. On SVO plates, spontaneous mutants of T. maritima and T. sp. […] Based on these observations, for the rest of the study, kanamycin was added at 150 μg ml^−1 to liquid media and at 250 μg ml^−1 to soft and solid media.
# T. sp. RQ7 = assay: as above; type: cell-based, Thermotoga sp. RQ7; conditions: SVO plates, 48 h of incubation
# Experimental: as §1, §2
# pUC19 DNA [2] = assay: Modification assay: protection of pUC19 DNA from the REase by CTN_0340 extract; type: biochemical; conditions: 10 μl extract, 77° C. 1 h, then REase overnight at 77° C.
# Experimental: One gram of E. coli wet cells grown at 37° C., containing pJC339 or pJC340 or both, were resuspended in 3 ml lysis buffer (10 mM Tris-HCl, 10 mM MgCl2, 50 mM NaCl, 1 mM DTT, pH 8.0) and were lysed with two passages through a French press at 14,000 pounds per square inch. After centrifugation at 27 k×g for 25 min, the supernatant was transferred to a new tube and heated at 77° C. for 1 h to denature most of the host proteins, followed by another round of centrifugation at 17 k×g for 15 min. The supernatant containing purified Thermotoga proteins was stored at 4° C. Such extracts retained 100% of the restriction activity for up to 5 weeks, and ≧50% of the activity for at least 12 weeks. For expression analysis, heat-purified cell extracts were mixed with loading buffer and were subjected to sodium dodecyl sulfate-polyacrylamide gel electrophoresis (SDS-PAGE) in 15% (w/v) gels. HisDetector Western Blot Kit (Kirkegaard & Perry Laboratories, Inc., Maryland, USA) was used for colorimetric immunodetection of histidine-tagged CTN—0339 protein. […] One unit of the REase activity is defined as the quantity required to completely digest 1 μg of pUC19 DNA in 1 h at 77° C. […] One unit of the MTase activity is defined as the quantity required to completely protect 1 μg of pUC19 DNA from the cleavage of the REase for 1 h at 77° C. […]
# pUC19 = assay: Enzyme activity assay of M.TneDI prepared from DH1021 strains; type: biochemical
# Experimental: Cells from 10 ml of the induced DH1021 cultures were harvested by centrifugation and were resuspended in 150 μl of lysis buffer (10 mM Tris-HCl, 10 mM MgCl2, 50 mM NaCl, 1 mM DTT, pH 8.0). Lysozyme was added to a final concentration of 0.3 mg/ml. The cell suspension was subject to 3 freeze-thaw cycles to lyse the cells. Cell lysate was then heated at 77° C. for 30 min to denature host proteins. After centrifugation at 21,130 g for 5 min, the supernatant was recovered and used as M.TneDI preparations for activity assays. Such prepared M.TneDI can be stored at −20° C. in the presence of 10% (v/v) glycerol for more than 2 months.
# Plasmid pUC19 extracted from a XL1-Blue MRF′ host was used as the substrate DNA (FIG. 10). Eight micrograms of pUC19 was incubated with 10 μl of the above prepared M.TneDI for 1 h at 77° C., supplemented with 20 μg/ml of S-adenosyl-L-methionine (AdoMet). The DNA was then subjected to restriction digestions of R.TneDI or other Type II REases recognizing CGCG sequence, such as BstUI. […] Based on the growth and the enzyme activity assays, DH10212-3 was identified as the best strain for production of M.TneDI.
# pUC19 DNA [3] = assay: Restriction assay of heat-purified cell extracts containing the REase; type: biochemical; conditions: for restriction activity retained on storage: heat-purified extract stored at 4° C.
# Experimental: One gram of E. coli wet cells grown at 37° C., containing pJC339 or pJC340 or both, were resuspended in 3 ml lysis buffer (10 mM Tris-HCl, 10 mM MgCl2, 50 mM NaCl, 1 mM DTT, pH 8.0) and were lysed with two passages through a French press at 14,000 pounds per square inch. After centrifugation at 27 k×g for 25 min, the supernatant was transferred to a new tube and heated at 77° C. for 1 h to denature most of the host proteins, followed by another round of centrifugation at 17 k×g for 15 min. The supernatant containing purified Thermotoga proteins was stored at 4° C. Such extracts retained 100% of the restriction activity for up to 5 weeks, and ≧50% of the activity for at least 12 weeks. For expression analysis, heat-purified cell extracts were mixed with loading buffer and were subjected to sodium dodecyl sulfate-polyacrylamide gel electrophoresis (SDS-PAGE) in 15% (w/v) gels. HisDetector Western Blot Kit (Kirkegaard & Perry Laboratories, Inc., Maryland, USA) was used for colorimetric immunodetection of histidine-tagged CTN—0339 protein. For restriction assays, heat-purified cell extracts containing the REase were serially diluted in 2-fold steps with the lysis buffer and were incubated with 5 μg of substrate DNA in a reaction volume of 50 μl. After 1 h of incubation at 50° C., 65° C., or 77° C., the reaction was terminated with 5 μl of stopping buffer (50 mM EDTA, 50% (w/v) glycerol, 0.02% (w/v) bromophenol blue, pH 8.0). Digested DNA fragments were resolved on 1% (w/v) agarose gels. One unit of the REase activity is defined as the quantity required to completely digest 1 μg of pUC19 DNA in 1 h at 77° C. For modification assays, heat-purified cell extracts containing the MTase were serially diluted in 2-fold steps with the lysis buffer and were incubated with 5 μg of substrate DNA in a total volume of 50 μl. After 1 h of incubation at 77° C., the reaction mix was then incubated with 0.5 U of the REase at 77° C. for overnight. One unit of the MTase activity is defined as the quantity required to completely protect 1 μg of pUC19 DNA from the cleavage of the REase for 1 h at 77° C.
# The PCR product of CTN—0339 was completely digested by heat-purified REase. Two fragments were generated and were retrieved from agarose gels. The smaller piece was directly analyzed by Sanger sequencing; the larger piece was further digested by NdeI and was inserted into pUC19 at the NdeI-SmaI sites to form pDH22. The insertion region of the constructed vector was sequenced.
# To provide further evidence to the functions of the two Thermotoga proteins, we first tested the restriction activity of CTN—0339 at 50° C., 65° C., and 77° C. using pUC19 plasmid DNA prepared from strain XL1-Blue MRF′. […] (FIG. 3). […] (FIG. 3). […]
molecule,measurement,setting,value
"C[S+](CC[C@H](N)C(=O)[O-])C[C@H]1O[C@@H](n2cnc3c(N)ncnc32)[C@H](O)[C@@H]1O (stereo partly drawn) [AdoMet, S-adenosyl-L-methionine]",original AdoMet found,[1]; 6 days,~70%
same,original AdoMet found,[1]; 15 days,~25%
NC[C@H]1O[C@H](O[C@H]2[C@H](O)[C@@H](O[C@H]3O[C@H](CO)[C@@H](O)[C@H](N)[C@H]3O)[C@H](N)C[C@@H]2N)[C@H](O)[C@@H](O)[C@@H]1O [kanamycin],kanamycin concentration that completely inhibited growth,T. maritima; at least 72 h,50 µg/mL
same,kanamycin input needed for complete inhibition despite spontaneous mutations,T. maritima; over a period of 72 h,150 µg/mL
same,kanamycin concentration at which spontaneous mutants rarely showed up,T. sp. RQ7,250 µg/mL
B1,digestion of treated pUC19 DNA by the REase,pUC19 DNA [2],only partially digested
same,protection of substrate DNA from R.TneDI or BstUI,"pUC19; 10 μl preparation, 8 μg pUC19, 1 h at 77° C., 20 μg/ml AdoMet",prevents substrate DNA from the degradation
same,storage time of M.TneDI preparation,"pUC19; −20° C., 10% (v/v) glycerol",more than 2 months
B2,extract required to completely digest 1 μg of pUC19 DNA within 1 h,pUC19 DNA [3]; 65° C. or 50° C.,2.5 μl
same,extract required to completely digest 1 μg of pUC19 DNA within 1 h,"pUC19 DNA [3]; 77° C., relative to the amount at 65° C. or 50° C.",half of the amount
same,restriction activity retained on storage,pUC19 DNA [3]; at least 12 weeks,≥ 50%
same,restriction activity retained on storage,pUC19 DNA [3]; up to 5 weeks,100%

# Reference: patent US20120270297A1, “CULTURING AND GENETIC MANIPULATIONS OF THERMOTOGA SPP” (BOWLING GREEN STATE UNIVERSITY, priority 2011, published 2012)
